In patent US20110086797A1, “CONTROL OF SPORE GERMINATION” (priority 2007, published 2011):

System: B. subtilis peptidoglycan
Assay: Peptidoglycan binding (pelleting with insoluble peptidoglycan, SDS-PAGE/Coomassie)
Set-up: species or system Bacillus subtilis
Settings: for binding to cell wall (result in words): his6-tagged extracellular domain
From the text: Peptidoglycan Binding. The C-terminal fragment of PrkC (His6-PASTABs) composed of residues 357-648 was purified using Ni^2+ affinity chromatography with an E. coli strain carrying pIMS40 that overproduces His6-PASTABs. His6-Yycl composed of residues 31-280 was purified using identical methodology using an E. coli strain carrying pIMS36. His6-AcmA composed of residues 243-439 using an E. coli strain carrying pIMS42 and His6-PASTASa composed of residues 378-644 using an E. coli strain carrying pIMS44 were purified using identical methodology. 50 μg of proteins was separately incubated with purified B. subtilis or S. aureus peptidoglycan (˜5 mg) in 20 mM Tris-HCl, 50 mM MgCl2, 500 mM NaCl for 30 min at 4° C. Centrifugation (10 min, 15 k) was employed to remove the supernatant (soluble fraction) and the pellet was washed twice, then resuspended it in 2% SDS and incubated at RT for 1 h. Bound fraction (insoluble fraction) was recovered by removing the […] by centrifugation. Fractions consisting of unbound soluble protein and insoluble bound protein, and the wash were analyzed by SDS-PAGE. The gels were stained with Coomassie blue and the differences in the amounts of His6-PASTA in the two fractions were determined by measurement of the appropriate bands using ImageJ (NIH).

B1: His6-PASTABs: His-tagged C-terminal extracellular fragment of B. subtilis PrkC, residues 357-648, three PASTA repeats (protein)
chain: MLIGKRISGRYQILRVIGGGGMANVYLAEDIILDREVAIKILRFDYANDNEFIRRFRREAQSASSLDHPNIVSIYDLGEEDDIYYIVMEYVEGMTLKEYITANGPLHPKEALNIMEQIVSAIAHAHQNQIVHRDIKPHNILIDHMGNIKVTDFGIATALSSTTITHTNSVLGSVHYLSPEQARGGLATKKSDIYALGIVLFELLTGRIPFDGESAVSIALKHLQAETPSAKRWNPSVPQSVENIILKATAKDPFHRYETAEDMEADIKTAFDADRLNEKRFTIQEDEEMTKAIPIIKDEELAKAAGEKEAEVTTAQENKTKKNGKRKKWPWVLLTICLVFITAGILAVTVFPSLFMPKDVKIPDVSGMEYEKAAGLLEKEGLQVDSEVLEISDEKIEEGLMVKTDPKADTTVKEGATVTLYKSTGKAKTEIGDVTGQTVDQAKKALKDQGFNHVTVNEVNDEKNAGTVIDQNPSAGTELVPSEDQVKLTVSIGPEDITLRDLKTYSKEAASGYLEDNGLKLVEKEAYSDDVPEGQVVKQKPAAGTAVKPGNEVEVTFSLGPEKKPAKTVKEKVKIPYEPENEGDELQVQIAVDDADHSISDTYEEFKIKEPTERTIELKIEPGQKGYYQVMVNNKVVSYKTIEYPKDE
50 μg protein, ˜5 mg purified peptidoglycan
  % of total protein associated with the insoluble (peptidoglycan-bound) fraction: Approximately 40%
  binding to cell wall (result in words): binds to cell wall much better than Yycl
Listed as extracellular domain of PrkC
  binding to cell wall (result in words): bound to cell wall much better than a control protein
